Assay: soluble on expression in E. coli; label from the status in PepcDB or PDB records

Q: With “MPAYPREGKIIQIHSYKHNGTIHRIWQETVVLKGTPSYVIGGNNKTLVMEADGRTWVTREPAICFFHAKHWFNIIAMIREDGVYYYCNLSSPFVWDEEALKYIDYDLDIKVFPDMTYMLLDEDEYERHRREMHYPDVIDRILKNNVQKLIGWIKERKGPFAPEFIDKWYGVFQAYQT” as the sequence, how does the “soluble on expression in E. coli” value read?
A: Its value is “not soluble”.

Q: For “MKQVSRSALVSFSAEQMFNLVNDVAKYPEFLPGCSGSRIIESSGNGMVASVDVAKAGISKTFTTSNELIPGQAIMMNLVDGPFKTLRGGWIFTALDEQACKVELKLEFEFSSKMIEMAFGKIFNELTSNMVNAFTKRAKQVYECYEYLEHHHHHH”, which “soluble on expression in E. coli” value is on record?
A: The value was “not soluble”.

Q: Which “soluble on expression in E. coli” value does the source give for “MSTGSVDSQQSGGTLDAASKNIDHVIDQARHRHHQHRSKFKEAIDYLDQIFEDLKKECDPDDKNNNDENNKPFDPPPTFVAVKKKPTPLATSSASTTAPAAKIASASDSKKPASSSSTISVKPTVRQKTSETSKSKPLQQAPPSPVEVVIPVRKLSQGATNNQAEPTVAETIVLAKKTDKMDFTRRWLQDDLKSLAHLPPANIAPNASYYQDFDEHSLGSCSAEVAAFNTTKEKKNGSKASRKVSDSSDMIRPRPFRPQPVYPMVDGFNGPSAFEPFSSHTLPRVASNDQIPSEMKRSGSQDPYNTLRSMRSEGDGFDSARPSPSAFQQVSPFHRGSSMRSSLRSLPDHSPVRQKNSSYEVAAKDPVLSIDQLVAELELNTENTFSPADKRRSFPTSFGRPQAHQAQQHHAPSDYEKPNRFRAETRHAPTRGRAQNFVAPVAEPMTSKAPIYSQAVRPKQQQQQKSLDEVTSMLNRAVSQFGNEQRQAYQHPTAYKQLSQQSFGSVHSNNAFETINQEKINPSRVEAMHNMFERGTAPTSWKMQQKDSYEDRSQKMSPLQEVTYASLNSYSPPPPPPSHPLPQNGSHGMARNTSQNQISYHEYTPQPPTTQPPQRPPGSANSSQGGYYSSNSSGIGSNYPQNQQNQMYNNPRRSLIIDQQSISSRMPSVENDDDDGFYDNIGIYNDDRRYSRGSELETSASFRQLPPASNTSKHNRIGSFLRKIGGGSSRPPGSAASLMSLNKIANETIIKPGGLMKSNSLSNEPWKKVMLNGGASMPREANNNHKTGLGARLKNSLFGSRKRLDG” here?
A: Its value is “not soluble”.

Q: Which “soluble on expression in E. coli” value does the source give for “MSLGRFQTLDYEIPESMQRSWQDIVNLLAQIADVPTTLIMRVHQNHIEVNTSSDTQGNPYKAGDKEDLGHGLYCEHVIETKSQLVVPDALADEKWSNNPDIKLGMLSYCGLPLFWPNGETFGTICMLDSKANEYSETYRQLLNTFKDSIEAQLAVVYQQYKLLRLNSELKNRVENRTTDLAQLSFSLTQEIDRRKAAERQVNYQKTHDQGTGFLNRAALEAVVEDTLQSLEHGHQSLIVINVGFSNARSIQTRYGFEAFDEILKEFRKRLGMNDSNYFITGRPSSNDLVLLLWGEDADSKLHNLLDKITNISVGNFYINDTEVHLHSYVGVVQAHRSSSAKQLLQNACYAMLLCKESGEAYSYFCESHTHEGHHHHHH” here?
A: The value was “soluble”.

Q: Which “soluble on expression in E. coli” value does the source give for “MGSDKIHHHHHHMKILIVGGSGGIGSAMVKDALARFQDAEVHATFCTDSTHTGCSHFSGVKWHRLDVTDEAGIKALSESFESLDWLINCVGMLHSGSKGPEKSLSQFDGEFFLHNMTLNTLPTLLLAKHFSARLKSSVSPRLAVLSARVGSISDNRLGGWYSYRASKAALNMLIKTLAVEWQRSLKGGVVLALHPGTTKTRLSEPFQANVPGDKLFLPERVAADLMDIIARAEVCDSGSFLAYDGATIPW” here?
A: The value was “not soluble”.

Q: Which “soluble on expression in E. coli” value does the source give for “MGNCLFGGLGDEEEDLLIKVIKSDGGVLEFYSPVTAGFVSHGFSGHALFSAVDLLWKPLAHDHLLVPGQSYYLFPNIVSDELKTFVGSCHVRSNSESLSAITPYRMSLDYNHRVLKRSYTDVFSRNSHIRTRQKEKKTRRRRTSSKGAIWKVNLIINTEELLQILSEDGRTNELIESVRAVAKGETSSITSSSSENFLSVVQT” here?
A: Its value is “soluble”.

Q: Which “soluble on expression in E. coli” value does the source give for “MAHHHHHHMVFSIPSYLCLGDRPKKVVDERLHGVNFLTSRPKTGHYPDALFDKEFRYVYNGDRYPDPETMARREQMENRKRYITATGFISVFRPKKGEGLGSNYGLLQQEPYIHMPDHPQTRGPQPFPKVKPRQIYTSPSKAGSYGTPGLAITDIGNEYIATIYDQERINAKKERDVWRQRMPPVPFKPVGRRGYTFDEGPATGVSMCYIMTCPFREKRVQPVMKHFIIDKMWLPAGYIPDRPPPVEYWEDPYNGFDPRVDPKSRLKKSEDSIFRTGFRGDNFFYTRSIVFRRL” here?
A: The value was “not soluble”.

Q: Which “soluble on expression in E. coli” value does the source give for “MSLGSRNGEKDWENASTTSSVASGTEYTGPKLYKEPSAKSNKHIIQNALAHCCLAGKVNEGQKKKILEEMEKSDANNFLILFRDSGCQFRSLYTYCPETEEINKLTGIGPKSITKKMIEGLYKYNSDRKQFSHIPAKTLSASVDAITIHSHLWQTKRPVTPKKLLPTKEGHHHHHH” here?
A: The value was “soluble”.

Q: With “MITQHLIPDFIAKMTGSTEVQKSAGMKKSSSSQFKDTLDLAVEKSYAWQSGTKSYEYAMDIKDRPYQRLQNKNILDSAETKERRPDRTKPFNKASNQITSRASDKAERTASPEEENIEGENDRKLKGKAMEKALAEVLGISVEELEKLMAQLGINFENADGETGIQEAADKISAYLGLNQDEKMALAEMMSLVQKQVEQAFKDVQSAYDAARYDMKDENEAYGVELFHAETETAVEDTSALRNDLDVSKVSQEVKNKLDEETDGFLKQIAAKVVEVVQKDESTAGLKTVSVNGENIEEIGLKTDVEDIGNVREAKYSSDEKDSADNSGNAGSETSSMASRGVEAESAAKNSNNIQFEAVSNLTVQRATGQAEPDKTRNIIPVTNKEIVEQVVEKAKVVLSGDKSEMVIDLKPEHLGKLELKIVTERGMVVAKFVAENEQVKAALESNMNMLKESLEKQGFLVEGFSVTVGDNKRRENSRDKTNQGTANQRISGEKLQVSDMTGVERMQRIHENIDPYSYGSSSIDLTA” as the sequence, how does the “soluble on expression in E. coli” value read?
A: Its value is “soluble”.

Q: For “MDVNTTYTKELSIIVPIYNEERELPELVRRLSAAAASITEDYELIFVNDGSRDGSMELLRSLCKGDDRFFYINLSRNFGHQIAVSAGLDHVRGKATVIIDGDLQDPPELIPELYAKYREGYEVVYAQRKHREGETWFKKATAKGFYRTMRKITSIDMPLDTGDFRLIDRKIVQCLREMPEQNKFLRGQIAWMGFRQTGVQFDRDERKYGQTNYPLRKMLALAIDGITGFSSRPLEWVAQ”, which “soluble on expression in E. coli” value is on record?
A: The value was “not soluble”.

Q: For “MGSDKIHHHHHHMLQYRSSKMISMEIVEFKWLKFLDRYRSMAKHNLSNSGMPEPDLRSMGIDTRYESYLNEMVDLDAALRDTVARRYGVDRDNVIITNGGTEAIFLASAFISASSEVIAVPSPEYEPIFIVPESLDRRVRRVKLEKIGQAEKNSESLALSLPNNPTGKYGDIADLVRDAGRTYRYVYIDETFHDFTDDRGSSLYDGSKNLIVSNTMTKFYGLSSLRVGWIVSDKENIDAIRRIKDLTTINNARFSLFLARQAIEKWDRFRERTHSIVRKNADIARKELSDFGFYSDEYEGAPFMFVGDGRFDSEMMASKAISGYGVLVAPGSYFGLDGYLRVCLTALDAREDIAAFREFAEKELGK”, which “soluble on expression in E. coli” value is on record?
A: The value was “not soluble”.

Q: For “MGHHHHHHSHMKRSLSENSARSTADWAWEAVNPELAPVMKTVDTGQIPHSVSRPLRSQDSVFNSIQSNTGRSQGGWSYRDGNKNTSLKTWNKNDFKPQCKRTNLVANDGKNSCPVSSGAQQQKQLRIPEPPNLSRNKETELLRQTHSSKISGCTMRGLDKNSALQTLKPNFQQNQYKKQMLDDIPEDNTLKETSLYQLQFKEKASSLRIISAVIESMKYWREHAQKTVLLFEVLAVLDSAVTPGPYYSKTFLMRDGKNTLPCVFYEIDRELPRLIRGRVHRCVGNYDQKKNIFQCVSVRPASVSEQKTFQAFVKIADVEMQYYINVMNET”, which “soluble on expression in E. coli” value is on record?
A: Its value is “not soluble”.

Q: For “MGSDKIHHHHHHMNNLFDRIASRYVDGAEVFYGWMNMSLNQIKRAKKLGIKTIVECASSHPLYQLKILEEEYQKWNIPFKVGSQKIYLKALKEIKEADFIKIPSDFVQETFIKNGIPEEKLIKIPFGVDLEKFQPKDNYNNEIFRAVFVGTVSIRKGIPYLLKAWSELNLKDAQLYVVGAISPDVKIIIAKYSKLKNIIFTGRVKDIVPILRESNVFVFPSIEEGSALVTYEAMASGLPSIVTYNSGSIVRHGKDGFVIPIRDIKSLKDGIQYFYENPSEVKRMGKNARKHVEKYTWYNYGENLYNELKRLGLL”, which “soluble on expression in E. coli” value is on record?
A: Its value is “not soluble”.

Q: For “MKAKPSHQATSMSSSLRVSPSIHGYHFDTAARKKAVGNIFENIDQESLQRLFRNSGDKKAEERAKIIFAIDQDLEEKTRALMALKKRTKDKLLQFLKLRKYSIKVH”, which “soluble on expression in E. coli” value is on record?
A: The value was “not soluble”.
